Earlier results in patent US20160354395A1, “INFANT FORMULAS CONTAINING A 2-FUCOSYLATED OLIGOSACCHARIDE FOR TREATMENT OR PREVENTION OF INFLUENZA INFECTION” (NESTEC S.A., priority 2013, published 2016).

Tested on: influenza virus
Settings: mice

B1: Lactoferrin: a protein of the transferrin family, present in milk; given in the diet at 25 g/kg (protein, UniProt P24627 20-708, looked up)
Lactotransferrin: APRKNVRWCTISQPEWFKCRRWQWRMKKLGAPSITCVRRAFALECIRAIAEKKADAVTLDGGMVFEAGRDPYKLRPVAAEIYGTKESPQTHYYAVAVVKKGSNFQLDQLQGRKSCHTGLGRSAGWIIPMGILRPYLSWTESLEPLQGAVAKFFSASCVPCIDRQAYPNLCQLCKGEGENQCACSSREPYFGYSGAFKCLQDGAGDVAFVKETTVFENLPEKADRDQYELLCLNNSRAPVDAFKECHLAQVPSHAVVARSVDGKEDLIWKLLSKAQEKFGKNKSRSFQLFGSPPGQRDLLFKDSALGFLRIPSKVDSALYLGSRYLTTLKNLRETAEEVKARYTRVVWCAVGPEEQKKCQQWSQQSGQNVTCATASTTDDCIVLVLKGEADALNLDGGYIYTAGKCGLVPVLAENRKSSKHSSLDCVLRPTEGYLAVAVVKKANEGLTWNSLKDKKSCHTAVDRTAGWNIPMGLIVNQTGSCAFDEFFSQSCAPGADPKSRLCALCAGDDQGLDKCVPNSKEKYYGYTGAFRCLAEDVGDVAFVKNDTVWENTNGESTADWAKNLNREDFRLLCLDGTRKPVTEAQSCHLAVAPNHAVVSRSDRAAHVKQVLLHQQALFGKNGKNCPDKFCLFKSETKNLLFNDNTECLAKLGGRPTYEEYLGTEYVTAIANLKKCSTSPLLEACAFLTR
In the case of B1, the “number of infiltrated leukocytes recovered from bronchoalveolar lavage fluid” value (day 6) is given as “significantly lower” and the lung consolidation score (day 6 after infection, vs control mice given water) is given as “significantly lower”.
